Measurements from article PMC2897128 (Nature, 2010).

T1: Sulfolobus solfataricus SRP54 (SRP54 moiety of SRP54*) (Sulfolobus solfataricus, UniProt Q97ZE7 2-432)
T1 sequence (looked up): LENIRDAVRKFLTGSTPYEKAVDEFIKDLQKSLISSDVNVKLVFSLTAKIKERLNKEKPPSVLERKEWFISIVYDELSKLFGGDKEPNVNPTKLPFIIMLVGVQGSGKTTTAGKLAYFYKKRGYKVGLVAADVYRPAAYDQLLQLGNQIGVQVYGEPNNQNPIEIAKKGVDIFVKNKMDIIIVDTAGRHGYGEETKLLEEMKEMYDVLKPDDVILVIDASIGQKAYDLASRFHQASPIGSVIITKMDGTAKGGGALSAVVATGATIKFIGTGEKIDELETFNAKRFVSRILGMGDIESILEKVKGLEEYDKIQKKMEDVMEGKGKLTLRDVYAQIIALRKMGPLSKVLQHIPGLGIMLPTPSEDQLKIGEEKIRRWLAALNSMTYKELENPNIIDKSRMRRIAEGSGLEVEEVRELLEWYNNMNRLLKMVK


Tests used:
SEC = biological target: the molecule itself; assay: SEC
[1] = biological target: T1, Sulfolobus solfataricus SRP54 (SRP54 …); assay: crystal structure

binding result [1]	Binder	stoichiometry N (SEC)
	SRP54-signal sequence fusion protein (SRP54*) with an 11mer linker (other, Sulfolobus solfataricus | S. cerevisiae) LENIRDAVRKFLTGSTPYEKAVDEFIKDLQKSLISSDVNVKLVFSLTAKIKERLNKEKPPSVLERKEWFISIVYDELSKLFGGDKEPNVNPTKLPFIIMLVGVQGSGKTTTAGKLAYFYKKRGYKVGLVAADVYRPAAYDQLLQLGNQIGVQVYGEPNNQNPIEIAKKGVDIFVKNKMDIIIVDTAGRHGYGEETKLLEEMKEMYDVLKPDDVILVIDASIGQKAYDLASRFHQASPIGSVIITKMDGTAKGGGALSAVVATGATIKFIGTGEKIDELETFNAKRFVSRILGMGDIESILEKVKGLEEYDKIQKKMEDVMEGKGKLTLRDVYAQIIALRKMGPLSKVLQHIPGLGIMLPTPSEDQLKIGEEKIRRWLAALNSMTYKELENPNIIDKSRMRRIAEGSGLEVEEVRELLEWYNNMNRLLKMVKARSGSGSGSGSKLIRVGIILVLLIWGTVLLLKSIPHH	≥ 2
binds	KLIRVGIILVLLIWGTVLLLKSIPHH [signal anchor sequence from S. cerevisiae dipeptidyl-aminopeptidase B (DPAP-B)]	
